Measured values reported in the Human Domainome abundance scans (Beltran et al. 2025).
± gives the uncertainty stated by the source.

B1: CD2-associated protein, residues 1 to 59; numbered along this chain, Q9Y5K6 (parent)
chain: MVDYIVEYDYDAVHDDELTIRVGEIIRNVKKLQEEGWLEGELNGRRGMFPDNFVKEIKR

Variants of: B1
Assay: abundance fitness (aPCA) (normalised: wild type 0, dead -1); higher = more abundant; growth selection in yeast, the domain comes from the species named
Conditions: Homo sapiens
With MVDYIVEYDYDAVHDDELTIRVGEIIRNVKKLQEEGWLEGELNGRRGMFPDNWVKEIKR the abundance fitness was -0.026 ± 0.35.
Variant MVDYIVEYDYDAVHDDELTIRVGEIIRNVKKLQEEGWLEGELNGRRGMFPDNNVKEIKR has an abundance fitness of -0.053 ± 0.072.
MVDYIVEYDYDAVHDDELTIRVGEIIRNVKKLQEEGWLEGELNRRRGMFPDNFVKEIKR showed an abundance fitness of -0.133 ± 0.32.
In the case of MVDYIVEYDYDAVHDDELTIRVGEIIRCVKKLQEEGWLEGELNGRRGMFPDNFVKEIKR, the abundance fitness is reported as -0.215 ± 0.13.
For MVDYIVEYDYDAVHDDELAIRVGEIIRNVKKLQEEGWLEGELNGRRGMFPDNFVKEIKR, the abundance fitness was -0.756 ± 0.14.
In the case of MVDYIVEYDYDAVHDDELTIRVGEIIRNVKKLDEEGWLEGELNGRRGMFPDNFVKEIKR, the abundance fitness is reported as 0.065 ± 0.073.
MVDYIVEYDYDAVHDDELTIRVGEIIRNVKKLQEEGWLEGELNGMRGMFPDNFVKEIKR gave an abundance fitness of -0.274 ± 0.14.
Work on MVDYIVEYDYDAVHDDELTIRVGEIIRNVKKLQEEGWLEGELNGCRGMFPDNFVKEIKR yielded an abundance fitness of 0.033 ± 0.26.
MVDYIVEYDYDAVHDDELTIREGEIIRNVKKLQEEGWLEGELNGRRGMFPDNFVKEIKR showed an abundance fitness of 0.115 ± 0.16.
With MVDYIVEYDYDAVHDDELTIRVGEIIRNVRKLQEEGWLEGELNGRRGMFPDNFVKEIKR the abundance fitness was -0.071 ± 0.068.
Variant MVDYIVEYDYDAVHDDELTIRVGEIIRNVTKLQEEGWLEGELNGRRGMFPDNFVKEIKR has an abundance fitness of -0.07 ± 0.11.
MVDYIKEYDYDAVHDDELTIRVGEIIRNVKKLQEEGWLEGELNGRRGMFPDNFVKEIKR showed an abundance fitness of -0.579 ± 0.18.
In the case of MVDYIPEYDYDAVHDDELTIRVGEIIRNVKKLQEEGWLEGELNGRRGMFPDNFVKEIKR, the abundance fitness is reported as -1.2 ± 0.39.
For MVDYIVEYDYDAVHDDELTIRVGEIIRNVKKLQEEGWLEGELNGRRGMFPDDFVKEIKR, the abundance fitness was -0.236 ± 0.23.
For MVDYIVEYDYDAVHDDELTIRVGEIIRNVKKLQEEGWLEGELNGRRGMFPDYFVKEIKR, the abundance fitness was -0.203 ± 0.19.
Variant MVDYIVEYDYDAVHDDELTIRVGVIIRNVKKLQEEGWLEGELNGRRGMFPDNFVKEIKR has an abundance fitness of -0.94 ± 0.24.
Work on MVDYIVEYDYDAVHDDELTIRVGRIIRNVKKLQEEGWLEGELNGRRGMFPDNFVKEIKR yielded an abundance fitness of -0.687 ± 0.087.
With YVDYIVEYDYDAVHDDELTIRVGEIIRNVKKLQEEGWLEGELNGRRGMFPDNFVKEIKR the abundance fitness was -0.375 ± 0.37.
MVDYIVEYDYDAVHDGELTIRVGEIIRNVKKLQEEGWLEGELNGRRGMFPDNFVKEIKR gave an abundance fitness of -0.069 ± 0.068.
MVDYIVEYDYDAVHDSELTIRVGEIIRNVKKLQEEGWLEGELNGRRGMFPDNFVKEIKR showed an abundance fitness of -0.036 ± 0.076.
For MVDYIVEYDYDAVHDNELTIRVGEIIRNVKKLQEEGWLEGELNGRRGMFPDNFVKEIKR, the abundance fitness was 0.001 ± 0.16.
Variant MVGYIVEYDYDAVHDDELTIRVGEIIRNVKKLQEEGWLEGELNGRRGMFPDNFVKEIKR has an abundance fitness of -0.437 ± 0.065.
For MVDYIVEYDYDAVHDDELTIRVGEIIRNVKKLQEEGWLEGEQNGRRGMFPDNFVKEIKR, the abundance fitness was -0.328 ± 0.19.
Variant MVDYIVEYDYDAVHDDELTIRVGEIIRNVKKLQEEGWLEGECNGRRGMFPDNFVKEIKR has an abundance fitness of -0.012 ± 0.13.
Work on MVDYIVEYDYDAVHDDELTIRVGEIIRNVKKLQEEGWLEGEVNGRRGMFPDNFVKEIKR yielded an abundance fitness of -0.146 ± 0.14.
Variant MVDYIVEYDYDAVNDDELTIRVGEIIRNVKKLQEEGWLEGELNGRRGMFPDNFVKEIKR has an abundance fitness of 0.09 ± 0.15.
For MVDYIVEYDYDAVTDDELTIRVGEIIRNVKKLQEEGWLEGELNGRRGMFPDNFVKEIKR, the abundance fitness was -0.001 ± 0.12.
Variant MVDYIVEYDYDAVHDDELTIRVGEIIINVKKLQEEGWLEGELNGRRGMFPDNFVKEIKR has an abundance fitness of -0.155 ± 0.066.
In the case of MVDYIVEYDYDAVHDDELTIRVGEIICNVKKLQEEGWLEGELNGRRGMFPDNFVKEIKR, the abundance fitness is reported as -0.038 ± 0.065.
Work on MVDYIVEYDYDAVHDDELTIRVGEIIRNVKKLQEEGWLEGALNGRRGMFPDNFVKEIKR yielded an abundance fitness of -0.388 ± 0.33.
Work on MVDYIVEYDYDAVHDDELTIRVGEIIRNVKKLQEEGWLEGQLNGRRGMFPDNFVKEIKR yielded an abundance fitness of -0.352 ± 0.18.
For MVDYIVEYNYDAVHDDELTIRVGEIIRNVKKLQEEGWLEGELNGRRGMFPDNFVKEIKR, the abundance fitness was -0.276 ± 0.4.
MVDYIVEYCYDAVHDDELTIRVGEIIRNVKKLQEEGWLEGELNGRRGMFPDNFVKEIKR gave an abundance fitness of -0.671 ± 0.37.
For MVDYIVEYDYDAVHDDYLTIRVGEIIRNVKKLQEEGWLEGELNGRRGMFPDNFVKEIKR, the abundance fitness was -0.736 ± 0.38.
Work on MVDYIVEYDYDAVHDDQLTIRVGEIIRNVKKLQEEGWLEGELNGRRGMFPDNFVKEIKR yielded an abundance fitness of 0.146 ± 0.14.
MVDYIVEYDYDAVHDDELTIRVGEIIRNVKKLQEEGWLEGELNGRRGMFPDNFVKRIKR gave an abundance fitness of -0.137 ± 0.089.
Work on MVDYIVEYDYDAVHDDELTIRVKEIIRNVKKLQEEGWLEGELNGRRGMFPDNFVKEIKR yielded an abundance fitness of -0.383 ± 0.2.
Work on MVDYIVEYDYDAVHDDELTIRVIEIIRNVKKLQEEGWLEGELNGRRGMFPDNFVKEIKR yielded an abundance fitness of -0.739 ± 0.34.
MVDYIVEYDYDAVHDDELTIRVGEIIRNVKKLQEEGWLEGELNGRRGMFPDNFPKEIKR gave an abundance fitness of -0.604 ± 0.32.
MVDYIVEYDYDAVHDDELTIRVGEIIRNVKKLQEEGWLEGELNGRRGMFPDNFRKEIKR showed an abundance fitness of -0.557 ± 0.19.
MVDYIVEYDYDAVHDDELTIRVGEIIRNVKKLQTEGWLEGELNGRRGMFPDNFVKEIKR gave an abundance fitness of -0.028 ± 0.14.
Work on MVDYIVEYDYDAVHDDELTIRVGEIIRNVKKLQIEGWLEGELNGRRGMFPDNFVKEIKR yielded an abundance fitness of 0.074 ± 0.24.
MVDYIVEYDYDAVHKDELTIRVGEIIRNVKKLQEEGWLEGELNGRRGMFPDNFVKEIKR showed an abundance fitness of -0.078 ± 0.14.
With MVDYIVEYDYDAVHDDELTIRVGEIIRNVKKLQEEGWLEGELNGRRGMFPDNFVKEVKR the abundance fitness was -0.03 ± 0.37.
For MVDYIVEYDYDAVHDDELTIRVGEIIRNVKKLQEEGWLEGELNGRRGMFPDNFVKEMKR, the abundance fitness was -0.205 ± 0.35.
